Values belong to the molecule of their own block, whether it stands above or below them.
Assays:
TbPex3 = molecular target: T1, TbPex3 (Trypanosoma brucei, UniProt Q383Q3); test: pull-down and MST with purified MBP-TbPex3 and NT-647-labeled His-TbPex19; inhibition of protein-protein interaction; assay type: binding
T1 construct: gene Tb11.01.2020; MBP fusion to TbPex3 (with 6 × His-TbPex19), recombinant from E. coli; with TbPex19

His-TbPex19 (T. brucei) [1] = test: MST; Monolith NT.115; MBP-Pex3 (0–2.5 μM) titrated into 100 nM NT-647-labeled His-Pex19; 50 mM Tris–HCl, pH 7.4, 150 mM NaCl, 10 mM MgCl2, 0.05% Tween-20
His-TbPex19 (T. brucei) [2] = test: MST; Monolith NT.115; 100 nM each of NT-647-labeled His-Pex19 and MBP-Pex3 with DMNQ titrated from 3 nM to 100 μM; apparent
His-HsPex19 (human) [3] = molecular target: His-HsPex19 (human) (UniProt P40855); test: MST; Monolith NT.115; MBP-Pex3 (0–2.5 μM) titrated into 100 nM NT-647-labeled His-Pex19; 50 mM Tris–HCl, pH 7.4, 150 mM NaCl, 10 mM MgCl2, 0.05% Tween-20
Chain of His-HsPex19 (human) (P40855 whole entry): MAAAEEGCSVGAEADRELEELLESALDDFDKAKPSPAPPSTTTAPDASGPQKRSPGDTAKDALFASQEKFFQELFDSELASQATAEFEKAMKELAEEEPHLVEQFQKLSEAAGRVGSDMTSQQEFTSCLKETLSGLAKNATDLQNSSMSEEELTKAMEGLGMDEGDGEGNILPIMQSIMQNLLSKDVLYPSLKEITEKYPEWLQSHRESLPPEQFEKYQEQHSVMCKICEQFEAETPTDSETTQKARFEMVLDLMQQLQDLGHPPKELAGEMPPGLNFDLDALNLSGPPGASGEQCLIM

His-HsPex19 (human) [4] = molecular target: His-HsPex19 (human) (UniProt P40855); test: MST; Monolith NT.115; 100 nM each of NT-647-labeled His-Pex19 and MBP-Pex3 with DMNQ titrated from 3 nM to 100 μM; apparent

Molecule: COC1=C(OC)C(=O)c2ccccc2C1=O [2,3-dimethoxy-1,4-naphthoquinone]
pull-down and MST with purified MBP-TbPex3 and NT-647-labeled His-TbPex19; inhib (TbPex3): 39.6 ± 0.86 µM

Kd (His-TbPex19 (T. brucei) [1]): 3.8 nM
apparent KD with DMNQ titrated in (His-TbPex19 (T. brucei) [2]): 39600 nM
Molecule: MBP-TbPex3 (natural protein)

Kd (His-HsPex19 (human) [3]): 4.37 nM
KD with DMNQ titrated in (His-HsPex19 (human) [4]): 14.5 nM
Molecule: MBP-HsPex3 (from UniProt P56589 1-373) (natural protein)

From publication PMC8326762, “A Small Molecule Inhibitor of Pex3–Pex19 Interaction Disrupts Glycosome Biogenesis and Causes Lethality in Trypanosoma brucei” (Frontiers in Cell and Developmental Biology, 2021)
